According to the RNAGym collection of RNA variant scans (doi:10.1073/pnas.2313332121):
Variants at the floor of the assay were thinned out.

B1: TPR 5TU (parent)
chain: GGAUCUUCUCGAUCUAACAAAAAAGACAAAUCUGCCACAAAGCUUGAGAGCAUCUUCGGAUGCAGAGGCGGCAGCCUUCGGUGGCGCGAUAGCGCCAACGUUCUCAACUAUGACACGCAAAACGCGUGCUCCGUUGAAUGGAGUUUAUCAUG

Variants of: B1
Test: polymerase ribozyme fitness, log enrichment relative to wild type (log ratio); higher = more active; in vitro selection for triplet polymerase activity
How it was run: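 In triplicate, a single round of in vitro selection was run on each mutant library, PCR-built and transcribed, covering one subunit of a heterodimeric triplet polymerase ribozyme. Frozen incubation at −7 °C followed annealing with a biotinylated primer, partner subunit and triplets, and extended constructs were then gel-excised, streptavidin-captured and taken through RT-PCR. Fitness is the logarithm of genotype enrichment over wild-type enrichment, from inverse-variance-weighted replicate averages of Illumina-sequenced inputs and outputs. […] only genotypes with ≥10 input reads and ≥1 read per output were kept.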
In the case of C8A A17G A21U C38U G86A C99G G126U U139G, the “polymerase ribozyme fitness (log ratio)” value is reported as at most -4.2. With C8A A12C G42C C72U G86A the “polymerase ribozyme fitness (log ratio)” value was at most -4.2. For U9A A28C A64C C72U U78G, the “polymerase ribozyme fitness (log ratio)” value was at most -4.2. With C8G the “polymerase ribozyme fitness (log ratio)” value was -2.95. In the case of C8U, the “polymerase ribozyme fitness (log ratio)” value is reported as -2.39. For C8A, the “polymerase ribozyme fitness (log ratio)” value was -2.84. With C8A A37C G59C C75A G92A the “polymerase ribozyme fitness (log ratio)” value was at most -4.2. In the case of U7A A17U G25C G88C C116A, the “polymerase ribozyme fitness (log ratio)” value is reported as at most -4.2. For U6C G48C G59U U145C, the “polymerase ribozyme fitness (log ratio)” value was -0.905. For U6G U45C C76A C93G C103A, the “polymerase ribozyme fitness (log ratio)” value was at most -4.2. In the case of U6G U146A, the “polymerase ribozyme fitness (log ratio)” value is reported as -1.17. With C8G A24C G65U C87A C95U C105G the “polymerase ribozyme fitness (log ratio)” value was at most -4.2. In the case of C8A U15A A19U A28U A30U C38A A39C A40U G59U C99G A107U C114U, the “polymerase ribozyme fitness (log ratio)” value is reported as at most -4.2. In the case of U9A C35U A121U G136A, the “polymerase ribozyme fitness (log ratio)” value is reported as at most -4.2. For U6G A47G U53G U55A C76G C85G C103G G128U C129A U145G, the “polymerase ribozyme fitness (log ratio)” value was at most -4.2. In the case of U7G A20C C38A G83A, the “polymerase ribozyme fitness (log ratio)” value is reported as -3.16. With U7G U56A G59C U78C the “polymerase ribozyme fitness (log ratio)” value was -2.83. For C8A G94C, the “polymerase ribozyme fitness (log ratio)” value was -3.7. With C8A A17C G62A G68A C85U U111G the “polymerase ribozyme fitness (log ratio)” value was at most -4.2. For C8G A16C A21G G48C C75A C87U A110U U144G, the “polymerase ribozyme fitness (log ratio)” value was at most -4.2. With U7A A16U G58C G71C C93U A115C U134C the “polymerase ribozyme fitness (log ratio)” value was at most -4.2. In the case of C8A U15G G59C C114U A138G, the “polymerase ribozyme fitness (log ratio)” value is reported as at most -4.2. With U6C C18G A23G C27U A30G C54U C63A G84A C103U the “polymerase ribozyme fitness (log ratio)” value was at most -4.2. For U6G A12C C35G A60C C75G A110G, the “polymerase ribozyme fitness (log ratio)” value was at most -4.2. With C8A A19U G48C U56A C93U G140A A142G A150C the “polymerase ribozyme fitness (log ratio)” value was at most -4.2. In the case of U6G A26U A37C G50C U53A C57A U82G C103G, the “polymerase ribozyme fitness (log ratio)” value is reported as at most -4.2. In the case of U6G C54A C75G C85A C105U A106U U111A G136U, the “polymerase ribozyme fitness (log ratio)” value is reported as at most -4.2. For U9A G59A C87A, the “polymerase ribozyme fitness (log ratio)” value was at most -4.2. With U7A A17U A24G U56A C93U U134A the “polymerase ribozyme fitness (log ratio)” value was at most -4.2. For U7A C14G U15G G88A, the “polymerase ribozyme fitness (log ratio)” value was -3.61. For U6G A40C U144A, the “polymerase ribozyme fitness (log ratio)” value was 0.287. With C8U A20G A24C A40C G50C G71C A89C C93U the “polymerase ribozyme fitness (log ratio)” value was at most -4.2. In the case of C8A U55A, the “polymerase ribozyme fitness (log ratio)” value is reported as -3.18. In the case of U6G G50U G83C A120U, the “polymerase ribozyme fitness (log ratio)” value is reported as -0.29. In the case of U9A A30C A40G A41C C57U C95G, the “polymerase ribozyme fitness (log ratio)” value is reported as at most -4.2. With U6C A49C C99A U146C the “polymerase ribozyme fitness (log ratio)” value was at most -4.2. In the case of U6G A16G C85U C125A, the “polymerase ribozyme fitness (log ratio)” value is reported as -1.05. With C8A C76G G86U U109G G141U the “polymerase ribozyme fitness (log ratio)” value was at most -4.2. With C8U A20G A26U U56A C96U C105U G128C the “polymerase ribozyme fitness (log ratio)” value was at most -4.2. In the case of U7C C8G A20U U55A A66U G88A C99G G143U, the “polymerase ribozyme fitness (log ratio)” value is reported as at most -4.2. In the case of C8A A20C A22G G42C U53A C95U, the “polymerase ribozyme fitness (log ratio)” value is reported as at most -4.2. In the case of C8G A40U U53A C87A C108G, the “polymerase ribozyme fitness (log ratio)” value is reported as at most -4.2. With U7G C87U the “polymerase ribozyme fitness (log ratio)” value was -3.04. In the case of C8A C85A C87A G124A, the “polymerase ribozyme fitness (log ratio)” value is reported as at most -4.2. With C8A A12G U13G C51A C57A G92U G124C U144C the “polymerase ribozyme fitness (log ratio)” value was at most -4.2. For U7G A23C A47C U53A C116A, the “polymerase ribozyme fitness (log ratio)” value was at most -4.2. With U6G C10A A40G A60G C75A G80C A107U G126A G133U U139G G143C the “polymerase ribozyme fitness (log ratio)” value was at most -4.2. For U6G C57A U61A G65A A121U G126A, the “polymerase ribozyme fitness (log ratio)” value was -3.12. In the case of U6G A20U G25A U31G C87A C96U C129A G136A G140C A150C, the “polymerase ribozyme fitness (log ratio)” value is reported as at most -4.2. With U7C C35U C87G U104G the “polymerase ribozyme fitness (log ratio)” value was -4.04. In the case of U7A C93U, the “polymerase ribozyme fitness (log ratio)” value is reported as -3.98. In the case of U7A C93G, the “polymerase ribozyme fitness (log ratio)” value is reported as at most -4.2. For C8U U9A C10U A17G A66G A91C, the “polymerase ribozyme fitness (log ratio)” value was at most -4.2. In the case of U7G U55C C99U, the “polymerase ribozyme fitness (log ratio)” value is reported as at most -4.2. With C8A C36A G68C C96U C99A G128C the “polymerase ribozyme fitness (log ratio)” value was at most -4.2. With U7G C93U A98G G141A the “polymerase ribozyme fitness (log ratio)” value was -3.82. For C8U C63U G80A G84C C96U, the “polymerase ribozyme fitness (log ratio)” value was at most -4.2. In the case of C8G G11U G50A C116G U146G, the “polymerase ribozyme fitness (log ratio)” value is reported as at most -4.2. With U7A C35A A39U G50A G92U C95A U130A U135A the “polymerase ribozyme fitness (log ratio)” value was at most -4.2. In the case of C8G U31A U33G U53G U55G G94A G126C, the “polymerase ribozyme fitness (log ratio)” value is reported as at most -4.2. For C8A G86A C87U A138U, the “polymerase ribozyme fitness (log ratio)” value was at most -4.2. With U7C C38U G62C the “polymerase ribozyme fitness (log ratio)” value was -3.44. With C8A C87A C99U the “polymerase ribozyme fitness (log ratio)” value was at most -4.2. With U7G G50C A52C G84A C114U A138G the “polymerase ribozyme fitness (log ratio)” value was at most -4.2. For C8A A19C C72A C95A C96G C131U G136C, the “polymerase ribozyme fitness (log ratio)” value was at most -4.2. With C8U A26G U56A C76G C105U A106C C123U the “polymerase ribozyme fitness (log ratio)” value was at most -4.2. For U6G C93A A98G, the “polymerase ribozyme fitness (log ratio)” value was -1.61. In the case of C8G U78A, the “polymerase ribozyme fitness (log ratio)” value is reported as at most -4.2. In the case of C8A G94A C95A, the “polymerase ribozyme fitness (log ratio)” value is reported as at most -4.2. In the case of C8G C96A, the “polymerase ribozyme fitness (log ratio)” value is reported as -4.07. In the case of C8G G48C, the “polymerase ribozyme fitness (log ratio)” value is reported as -4.08. With U7G C125U the “polymerase ribozyme fitness (log ratio)” value was -3.39. With C8A C51A C57A G59A U61A G67C C95U C125U U134C U139A the “polymerase ribozyme fitness (log ratio)” value was at most -4.2. In the case of U6C C32U C54A, the “polymerase ribozyme fitness (log ratio)” value is reported as -4. In the case of U7C A16U G50A C54A C57A C72G C85G A98U G141A, the “polymerase ribozyme fitness (log ratio)” value is reported as at most -4.2. For C8U U13C C27A G50A U61A G62U C93U A106C A110G C125G, the “polymerase ribozyme fitness (log ratio)” value was at most -4.2. With U7G A21G U61G C85U C87A A106C the “polymerase ribozyme fitness (log ratio)” value was at most -4.2. In the case of U7C C38A, the “polymerase ribozyme fitness (log ratio)” value is reported as -2.38. With U6C U78G U111G U134C the “polymerase ribozyme fitness (log ratio)” value was -4.14. In the case of C8A A17G A98G U144A, the “polymerase ribozyme fitness (log ratio)” value is reported as at most -4.2. For C8U A73G G83A, the “polymerase ribozyme fitness (log ratio)” value was at most -4.2. With U7C A41C C51U C54G U55A G58A C76G C87G C103A C125U the “polymerase ribozyme fitness (log ratio)” value was at most -4.2. With U6G A16G A24C U145C the “polymerase ribozyme fitness (log ratio)” value was at most -4.2.
